Source: patent US20110223183A1

Molecular target: Flt1/VEGFR1 (human) (UniProt P17948)
Test: cell-based or functional assay

UniProt P17948, sequence (P17948 27-1338): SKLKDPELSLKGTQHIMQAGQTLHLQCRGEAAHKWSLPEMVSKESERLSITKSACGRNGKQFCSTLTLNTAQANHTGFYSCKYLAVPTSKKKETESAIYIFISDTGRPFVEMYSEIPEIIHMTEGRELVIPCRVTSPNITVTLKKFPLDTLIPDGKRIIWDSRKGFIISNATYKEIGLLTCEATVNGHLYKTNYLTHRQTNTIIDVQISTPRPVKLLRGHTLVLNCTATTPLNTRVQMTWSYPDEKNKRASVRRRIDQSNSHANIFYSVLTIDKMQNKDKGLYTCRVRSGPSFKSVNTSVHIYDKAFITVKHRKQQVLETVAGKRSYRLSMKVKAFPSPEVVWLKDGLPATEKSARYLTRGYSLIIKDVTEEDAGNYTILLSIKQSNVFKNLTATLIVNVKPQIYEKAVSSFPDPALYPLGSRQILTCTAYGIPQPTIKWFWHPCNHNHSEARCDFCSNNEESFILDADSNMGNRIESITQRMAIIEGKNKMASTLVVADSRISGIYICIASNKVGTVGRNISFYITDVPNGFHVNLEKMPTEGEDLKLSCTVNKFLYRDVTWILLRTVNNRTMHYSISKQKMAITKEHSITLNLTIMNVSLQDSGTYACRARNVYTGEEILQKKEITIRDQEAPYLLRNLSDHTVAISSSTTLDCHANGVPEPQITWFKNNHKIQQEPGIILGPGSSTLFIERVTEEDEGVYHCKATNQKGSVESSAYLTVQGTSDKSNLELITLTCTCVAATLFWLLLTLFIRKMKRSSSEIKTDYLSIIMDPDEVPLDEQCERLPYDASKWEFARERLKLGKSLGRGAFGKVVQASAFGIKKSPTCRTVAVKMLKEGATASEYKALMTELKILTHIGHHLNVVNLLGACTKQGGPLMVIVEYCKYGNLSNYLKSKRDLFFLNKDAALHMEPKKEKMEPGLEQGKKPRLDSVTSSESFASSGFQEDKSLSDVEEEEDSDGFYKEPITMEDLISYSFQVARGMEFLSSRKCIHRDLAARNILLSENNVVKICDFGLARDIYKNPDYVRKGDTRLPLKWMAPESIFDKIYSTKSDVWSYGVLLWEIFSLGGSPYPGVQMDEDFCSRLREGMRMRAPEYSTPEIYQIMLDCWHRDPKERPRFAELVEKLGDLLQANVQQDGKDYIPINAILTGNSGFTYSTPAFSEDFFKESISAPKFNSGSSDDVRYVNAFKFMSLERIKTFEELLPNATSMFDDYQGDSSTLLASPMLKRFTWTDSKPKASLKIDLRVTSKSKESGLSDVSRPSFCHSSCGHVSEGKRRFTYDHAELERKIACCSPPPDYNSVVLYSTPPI

Q: placental growth factor (ligand) was tested. Which HUVEC buds containing multiple filopodia did it give?
A: 250%
